Reference: patent US20220024982A1 (Bicycle, published 2022)
Numbered stars: 1 amine (or outer) side, 2 acyl side, 3 side chain; on linkers, the order of the positions; unused ones are H or OH. Bridge positions count the residues as written; N and C are the ends. Square brackets hold non-standard residues; d marks the D form. Ends that are not written are not given here. TATA = O=C(CC[*:1])N1CN(C(=O)CC[*:2])CN(C(=O)CC[*:3])C1; fluorescein = fluorescein (fluorescent label, [FI]); 2Nal = N[C@@H](Cc1ccc2ccccc2c1)C(=O)O; TBMB = c1c(C[*:1])cc(C[*:3])cc1C[*:2]; hArg = N=C(N)NCCCC[C@H](N)C(=O)O; Tle = CC(C)(C)[C@H](N)C(=O)O; Sar = CNCC(=O)O

Legend:
[1] = molecular target: T1, MT1-MMP Hemopexin domain (PEX) (UniProt P50281 319-511); assay: FP direct binding
T1 construct: domain: Hemopexin domain (PEX); Target of the fluorescence polarisation assays; also called hemopexin of MT1-MMP; MMP14

[2] = molecular target: T1, MT1-MMP Hemopexin domain (PEX); assay: FP competition vs tracer 17-69-07-N040
Source text: (§1) Here, a pre-formed complex of PEX with the fluorescent PEX-binding tracer is titrated with free, non-fluoresceinated bicyclic peptide. Since all 17-69-based peptides are expected to bind at the same site, the titrant will displace the fluorescent tracer from PEX. Dissociation of the complex can be measured quantitatively, and the Kd of the competitor (titrant) to the target protein determined. The advantage of the competition method is that the affinities of non-fluoresceinated bicyclic peptides can be determined accurately and rapidly.
(§2) Subsequently, the non-fluorescent competitor bicyclic peptide (usually just the bicycle core sequence) is titrated, such that it displaces the fluorescent tracer from the target protein. The displacement of the tracer is measured and associated with a drop in fluorescence polarisation. The drop in fluorescence polarisation is proportional to the fraction of target protein bound with the non-fluorescent titrant, and thus is a measure of the affinity of titrant to target protein.
(§3) The raw data is fit to the analytical solution of the cubic equation that describes the equilibria between fluorescent tracer, titrant, and binding protein. The fit requires the value of the affinity of fluorescent tracer to the target protein, which can be determined separately by direct binding FP experiments (see previous section).

[3] = molecular target: T2, human MT1 MMP14 protein, hemopexin domain (obtained from Merck Millipore) (human, UniProt P50281 319-511, limits assumed, randomly biotinylated (EZ-Link Sulfo-NHS-LC-LC-Biotin)); assay: SPR, biotinylated target on streptavidin chip
T2 construct: domain: hemopexin domain; Target of the SPR assay, captured on streptavidin; also called biotinylated MT1 MMP14
Protocol: Streptavidin was immobilized on the chip using standard amine-coupling chemistry at 25° C. with HBS-N (10 mM HEPES, 0.15 M NaCl, pH 7.4) as the running buffer. […] Buffer was changed to PBS/0.05% Tween 20 and a dilution series of the peptides was prepared in this buffer with a final DMSO concentration of 0.5%. […] Data were corrected for DMSO excluded volume effects. All data were double-referenced for blank injections and reference surface using standard processing procedures and data processing and kinetic fitting were performed using Scrubber software, version 2.0c (BioLogic Software).

[4] = molecular target: T1, MT1-MMP Hemopexin domain (PEX); assay: FP competition, plate 1, tracer not named
[5] = molecular target: T1, MT1-MMP Hemopexin domain (PEX); assay: FP competition vs tracer 17-88-N006
Protocol: as §2, §3

[6] = molecular target: T1, MT1-MMP Hemopexin domain (PEX); assay: FP competition vs tracer 17-69-07-N041
Source text: as §1, §2, §3

B1: 17-69-07-N040 (peptide)
peptide: ACYNEFGCEDFYDICA[Sar][Sar][Sar][Sar][Sar][Sar]K(fluorescein)
modifications: linker 2-8-15 via TBMB
notes: fluorescent tracer
- Kd [1]: 0.52 nM

B2: 17-126-24 (peptide)
peptide: ACDEQFYPCNHRLNTCA
modifications: linker 2-9-16 via TATA (inferred)
- Kd [2]: 200 nM

B3: 17-126-25 (peptide)
peptide: ACEEAFYPCHHPLYRCA
modifications: linker 2-9-16 via TATA (inferred)
- Kd [2]: > 139 nM

B4: BCY10223 (peptide)
peptide: Ac-LPPCV[hArg]ECALL[2Nal]P[hArg]TC
modifications: linker 4-8-16 via TATA
- Kd [3]: 400 nM

B5: BCY11149 (peptide)
peptide: Ac-LPPC[Tle][hArg]ECALLFP[hArg]TC
modifications: linker 4-8-16 via TATA
- Ki [4]: 80 nM

B6: 17-69-12-N004 (peptide)
peptide: fluorescein-G[Sar][Sar][Sar][Sar][Sar]ACMNQFGCEDFYDICA
modifications: linker 8-14-21 via TBMB
notes: fluorescent tracer
- Kd [1]: 1 nM

B7: 17-120-05 (peptide)
peptide: ACADECRLLFPKTCA
modifications: linker 2-6-14 via TATA
- Kd [2]: > 280 nM

B8: 17-69-07-N041 (peptide)
peptide: fluorescein-G[Sar][Sar][Sar][Sar][Sar]ACYNEFACEDFYDICA
modifications: linker 8-14-21 via TBMB
notes: fluorescent tracer
- Kd [1]: 3.4 nM

B9: 17-88-N006 (peptide)
peptide: ACPYSWETCLFGDYRCA[Sar][Sar][Sar][Sar][Sar][Sar]K(fluorescein)
modifications: linker 2-9-16 via TBMB
- Kd [1]: 14 nM

B10: 17-88-226-N002 (peptide)
peptide: ACPYDWATCLFGDYRCA[Sar][Sar][Sar][Sar][Sar][Sar]K(fluorescein)
modifications: linker 2-9-16 via TBMB
- Kd [1]: 50 nM

B11: 17-120-21 (peptide)
peptide: ACYEECRLLFPRTCA
modifications: linker 2-6-14 via TATA
- Kd [5]: > 82.8 nM

B12: 17-122-02 (peptide)
peptide: ACLEPDECFYPMECA
modifications: linker 2-8-14 via TATA
- Kd [2]: > 929 nM

B13: 17-122-03 (peptide)
peptide: ACKEPQECFYPLKCA
modifications: linker 2-8-14 via TATA
- Kd [2]: > 378 nM

B14: 17-122-04 (peptide)
peptide: ACDSPEECFYPLECA
modifications: linker 2-8-14 via TATA
- Kd [2]: > 2100 nM

B15: 17-126-01 (peptide)
peptide: ACEEEFYPCGHPLYVCA
modifications: linker 2-9-16 via TATA
- Kd [6]: > 316 nM

B16: 17-126-02 (peptide)
peptide: ACEEQFYPCTHALYTCA
modifications: linker 2-9-16 via TATA
- Kd [6]: > 282 nM

B17: 17-126-03 (peptide)
peptide: ACVEEFYPCDHPLYSCA
modifications: linker 2-9-16 via TATA
- Kd [6]: > 430 nM
